Test [1] has as its target T1, human pancreatic α-amylase (human, UniProt P04746).
T1 sequence: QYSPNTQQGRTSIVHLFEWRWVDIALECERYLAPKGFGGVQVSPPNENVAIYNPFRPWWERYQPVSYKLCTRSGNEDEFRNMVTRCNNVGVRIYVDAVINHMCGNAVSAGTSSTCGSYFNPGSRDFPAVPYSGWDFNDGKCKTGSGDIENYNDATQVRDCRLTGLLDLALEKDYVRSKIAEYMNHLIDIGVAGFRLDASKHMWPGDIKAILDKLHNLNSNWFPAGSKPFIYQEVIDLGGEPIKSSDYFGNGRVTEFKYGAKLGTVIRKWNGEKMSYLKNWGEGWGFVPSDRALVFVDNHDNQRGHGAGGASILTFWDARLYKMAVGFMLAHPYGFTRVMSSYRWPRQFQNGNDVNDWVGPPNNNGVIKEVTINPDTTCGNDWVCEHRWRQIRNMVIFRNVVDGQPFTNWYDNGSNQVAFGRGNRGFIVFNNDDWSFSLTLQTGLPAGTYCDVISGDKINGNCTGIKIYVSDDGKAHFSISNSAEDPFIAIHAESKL
As to the kind of experiment: cell-based or functional assay.

Test [2] relates to human pancreatic α-amylase. As to the kind of experiment: Determination of inhibitory activity against human pancreatic α-amylase. The test is classed as biochemical. The conditions noted are these: 1 U = amount inhibiting 50% of amylase activity, pH 6.9, 37° C., soluble starch. As to the method: The numerical values as given herein for the amylase inhibitory activity are determined by the following method, which are represented in terms of the inhibitory activity value against human pancreatic α-amylase.
Determination of inhibitory activity against human pancreatic α-amylase:
An aqueous solution of a sample and human pancreatic α-amylase were added to 20 mM piperazine-N,N'-bis(2-ethanesulfonic acid) buffer (pH 6.9) containing 50 mM NaCl, 5 mM CaCl2 and 0.02% egg white albumin. The mixture was allowed to stand at 37° C. for 30 min. and then mixed with 0.5 ml of a 1.5% soluble starch solution (pH 6.9). The resulting solution was allowed to react while maintaining at 37° C. for 10 min. and the reaction was then ceased by adding 2.5 ml of a solution (0.08M HCl and 0.4M acetic acid). To 0.2 ml of the reaction solution was added 2.5 ml of an iodine solution (0.05% KI and 0.005% iodine), and the mixture was measured for absorbance at 660 nm. The amylase was used in an amount sufficient to reduce 80% absorbance when no sample solution was contained and the amount of the amylase inhibitor sufficient to inhibit 50% amylase activity at this time was expressed as 1 amylase inhibitory unit (U).

B1: 0.26 AIb (other)
chain: SGPWMCYPGYAFKVPALPGCRPVLKLQCNGSQVPEAVLRDCCQQLADISEWCRCGALYSMLDSMYKEHGVQEGQAGTGAFPSCRREVVKLTAASITAVCKLPIVIDASGDGAYVCKGVAAYP
For B1, the “Amylase inhibitory activity (U/mg)” value in test [1] is 20500 U/mg.

B2: 0.28 AI (other)
chain: SGPWSWCNPATGYKVSALTGCRAMVKLQCVGSQVPEAVLRDCCQQLADINNEWCRCGDLSSMLRAVTQELGVREGKEVLPGCRKEVMKLTAASVPEVCKVPIPNPSGDRAGVCYGDWCAYPDV
For the molecule B2, the “Amylase inhibitory activity (U/mg)” value in test [1] stood at 840 U/mg.

B3: 0.26 AIa (other)
chain: SGPWMCYPGYAFKVPALPGCRPVLKLQCNGSQVPEAVLRDCCQQLADISEWCRCGALYSMLDSMYKEHGVQEGQAGTGAFPSCRREVVKLTAASITAVCKLPIVIDASGDGAYVCKGVAAYPDA
For the molecule B3, the “Amylase inhibitory activity (U/mg)” value in test [1] is 26100 U/mg.

B4: 0.53 AI: known wheat amylase inhibitor protein composed of two subunits, each identified as SEQ ID NO:4 (protein)
chain 1: SGPWMCYPGQAFQVPALPGCRPLLKLQCNGSQVPEAVLRDCCQQLADISEWPRCGALYSMLDSMYKEHGVSEGQAGTGAFPSCRREVVKLTAASITAVCRLPIVVDASGDGAYVCKDVAAYPDA
chain 2: SGPWMCYPGQAFQVPALPGCRPLLKLQCNGSQVPEAVLRDCCQQLADISEWPRCGALYSMLDSMYKEHGVSEGQAGTGAFPSCRREVVKLTAASITAVCRLPIVVDASGDGAYVCKDVAAYPDA
In the case of B4, the figures for the Amylase inhibitory activity in test [2] and in test [2] (listed as 0.58 AI) were 3,940 U/mg and “less amylase inhibitory activity”, respectively.

B5: 0.53 AI (other)
chain: SGPWMCYPGQAFQVPALPGCRPLLKLQCNGSQVPEAVLRDCCQQLADISEWPRCGALYSMLDSMYKEHGVSEGQAGTGAFPSCRREVVKLTAASITAVCRLPIVVDASGDGAYVCKDVAAYPDA
For the molecule B5, the “Amylase inhibitory activity (U/mg)” value in test [1] was 3940 U/mg.

B6: 0.19 AI (other)
chain: SGPWMCYPGQAFQVPALPACRPLLRLQCNGSQVPEAVLRDCCQQLAHISEWCRCGALYSMLDSMYKEHGAQEGQAGTGAFPRCRREVVKLTAASITAVCRLPIVVDASGDGAYVCKDVAAYPDA
Consider B6, for which, in test [1], the “Amylase inhibitory activity (U/mg)” value worked out at 20300 U/mg.
